Patent EP1230261B1 (LUDWIG INSTITUTE FOR CANCER RESEARCH, dated 2008)

B1: NY-ESO-1 157-167 peptide SLLMWITQCFL (SEQ ID NO:1) (peptide)
peptide: SLLMWITQCFL
B2: NY-ESO-1 157-C165L peptide SLLMWITQL (SEQ ID NO:7) (peptide)
peptide: SLLMWITQL
B3: peptide SLLMWATQA (SEQ ID NO:25) (peptide)
peptide: SLLMWATQA
B4: NY-ESO-1 157-C165V peptide SLLMWITQV (SEQ ID NO:8) (peptide)
peptide: SLLMWITQV
B5: peptide SALMWITQA (SEQ ID NO:21) (peptide)
peptide: SALMWITQA
B6: peptide SLLMWITQS (SEQ ID NO:19) (peptide)
peptide: SLLMWITQS
B7: peptide SLLAWITQA (SEQ ID NO:23) (peptide)
peptide: SLLAWITQA
B8: peptide SLLMAITQA (SEQ ID NO:24) (peptide)
peptide: SLLMAITQA
B9: peptide SLLMWIAQA (SEQ ID NO:26) (peptide)
peptide: SLLMWIAQA
B10: peptide SLLMWITAA (SEQ ID NO:27) (peptide)
peptide: SLLMWITAA
B11: NY-ESO-1 155-163 peptide QLSLLMWIT (SEQ ID NO:3) (peptide)
peptide: QLSLLMWIT
B12: peptide ALLMWITQA (SEQ ID NO:20) (peptide)
peptide: ALLMWITQA
B13: peptide SLAMWITQA (SEQ ID NO:22) (peptide)
peptide: SLAMWITQA

Molecular target: T1, HLA-A*0201 molecules on T2 cells (CEMX721.174.T2) (human)
Experiment: cell-based or functional assay

| Binder | Competitor activity [mM] 50% [mM] | Relative competitor activity to SEQ ID NO:2 |
| --- | --- | --- |
| B1 | 0.02 | 13 relative to SEQ ID NO:2 |
| B2 | 0.002 | 130 relative to SEQ ID NO:2 |
| B3 | 0.01 | 27 relative to SEQ ID NO:2 |
| B4 | 6e-05 |  |
| B5 | 0.01 | 27 relative to SEQ ID NO:2 |
| B6 | 0.02 | 13 relative to SEQ ID NO:2 |
| B7 | < 0.0001 | > 2700 relative to SEQ ID NO:2 |
| B8 | 0.004 | 68 relative to SEQ ID NO:2 |
| B9 | 0.0002 | 1350 relative to SEQ ID NO:2 |
| B10 | 0.00018 | 1500 relative to SEQ ID NO:2 |
| B11 | 0.03 | 9 relative to SEQ ID NO:2 |
| B12 | 0.0013 | 208 relative to SEQ ID NO:2 |
| B13 | 0.001 | 270 relative to SEQ ID NO:2 |

Molecular target: T1, HLA-A*0201 molecules on T2 cells …
Experiment: functional competition assay

| Binder | fold reduction in peptide binding (against the base peptide SEQ ID NO:6) [fold] |
| --- | --- |
| B5 | 100 |

Molecular target: T1, HLA-A*0201 molecules on T2 cells …
Experiment: cell-based or functional assay
Remark: another data set of the same source

| Binder | Relative competitor activity (inhibition of CTL lysis of T2 cells given SEQ ID NO:4) |
| --- | --- |
| B1 | 0.04 relative to FluMA 58-66 (SEQ ID NO:5) |
| B2 | 0.5 relative to FluMA 58-66 (SEQ ID NO:5) |
| B11 | 0.01 relative to FluMA 58-66 (SEQ ID NO:5) |
